For test [1], the target named is recombinant purified human IL-12 p70 (human) (UniProt P29459). Put plainly: cell-based or functional assay.
Test [2] shares this target. Kind of test: SPR (Biacore 3000), mAb captured via goat anti-mouse IgG Fc, human IL-12 p70 in solution.
Test [3] has the same target. Kind of test: SPR (BIAcore) per Example 1.1.B; antigen not restated, taken as human IL-12 p70.
The target is the same in test [4]. Kind of test: SPR (BIAcore) per Example 1.1.B, recombinant human IL-12p70.
For test [5] the target is unchanged. Put plainly: SPR (Biacore) per Example 1.1.B; antigen not restated, taken as human IL-12 p70.

Results on 16 molecules are retold here after patent publication US20100047245A1.

recombinant purified human IL-12 p70 (human), sequence (chain, as listed by the source, form in doubt, chain 1 of 2): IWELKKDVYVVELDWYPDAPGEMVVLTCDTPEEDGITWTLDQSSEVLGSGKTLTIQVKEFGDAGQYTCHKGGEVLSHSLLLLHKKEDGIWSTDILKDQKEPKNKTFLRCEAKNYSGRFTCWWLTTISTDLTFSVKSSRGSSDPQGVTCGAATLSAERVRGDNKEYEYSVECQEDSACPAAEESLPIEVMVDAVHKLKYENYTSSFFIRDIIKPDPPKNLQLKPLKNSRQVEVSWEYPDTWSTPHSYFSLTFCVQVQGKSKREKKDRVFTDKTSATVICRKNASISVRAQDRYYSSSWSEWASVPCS
recombinant purified human IL-12 p70 (human), sequence (P29459 23-219, form in doubt, chain 2 of 2): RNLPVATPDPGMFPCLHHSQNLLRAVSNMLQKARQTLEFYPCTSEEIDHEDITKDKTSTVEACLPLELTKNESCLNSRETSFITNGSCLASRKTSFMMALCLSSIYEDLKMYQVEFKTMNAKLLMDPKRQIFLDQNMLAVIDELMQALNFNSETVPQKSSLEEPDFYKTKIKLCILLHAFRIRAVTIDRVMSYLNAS

B1: 7G3 (antibody, V domains shown)
VH: EVQLQQSGAEFVRSGASVKLSCTASGLNIKDYYIHWVKQRPEQVLDWIGWIDPENGYSEYAPRFQDKATMTADTSSNTAYLHLSSLTSEDTAVYYCNPGELARYFDYWGQGTTLTVSS
VL: DIVLSQSPATLSVTPGDSVSLSCRASQSISKNLHWYQQKSHESPRLLIKYTSQSISGIPSRFSGSGSGTDFTLSINSVETEDFGMYFCQQSISWPLTFGAGTKLELKR
For the molecule B1, the Average IC50 (nM) Human IL-12; PHA blast IFN-gamma induction assay in test [1] was determined as 0.047 nM. Further, in test [2], the Kd turned out to be 0.27 nM, the koff worked out at 0.00028 s⁻¹ and the association rate constant (kon) was 1.1e+06 M⁻¹ s⁻¹.

B2: 1A6.4 (antibody, human IgG1, V domains shown)
VH: QVTLKESGPGILKPSQTLSLTCSFSGFSLSTSGMGVSWIRQPSGKGLEWLAHIWWDGDNYYNPSLKSQLTISKDTSRNQVFLRIATVDTADTATYYCARRTRVNYAMDYWGQGTSVTVSS
VL: EIVMTQSPATLSVSPGERATLSCKASQSVSNDVAWYQQKPGQAPRLLIYYASNRYTGIPARFSGSGSGTEFTLTISSLQSEDFAVYYCQQDYNSPWTFGGGTKVEIKR
For the molecule B2, the Av. IC50(nM) huIL-12; PHA blast IFN-gamma induction assay in test [1] came out at 2.1 nM. In addition, in test [3], the dissociation constant (Kd) is 1 nM, the dissociation rate constant (koff) came to 0.00011 s⁻¹ and the kon was 110000 M⁻¹ s⁻¹.

B3: 1A6.9 (antibody, human IgG1, kappa, L234A L235A, V domains shown)
VH: EVTLRESGPALVKPTQTLTLTCTFSGFSLSTSGMGVSWIRQPPGKALEWLAHIWWDGDNYYNPSLKSRLTISKDTSKNQVVLTMTNMDPVDTATYYCARRTRVNYAMDYWGQGTTVTVSS
VL: SVVMTQSPDSLAVSLGERATINCKASQSVSNDVAWFQQKPGQPPKLLIYYASNRYTGVPDRFSGSGYGTDFTLTISSLQAEDVAVYYCQQDYNSPWTFGGGTKVEIKR
For B3, in test [1], the Av. IC50(nM) huIL-12; PHA blast IFN-gamma induction assay turned out to be 0.15 nM. For the same molecule, in test [4], the dissociation constant (Kd) is less than 0.01 nM, the koff is less than 1e-05 s⁻¹ and the on-rate (kon) was 350000 M⁻¹ s⁻¹.

B4: 1A6.10 (antibody, V domains shown)
VH: EVTLRESGPGLVKPTQTLTLTCTLYGFSLSTSGMGVSWIRQPPGKGLEWLAHIWWDGDNYYNPSLKSQLTISKDTSKNQVVLKLTSVDPVDTATYYCARRTRVNYAMDYWGQGTLVTVSS
VL: DIQMTQSPSSLSASVGDRVTITCKASQSVSNDVAWYQQKPGKAPKLLIYYASNRYTGVPDRFSGSGYGTDFTFTISSLQPEDIATYYCQQDYNSPWTFGGGTKVEIKR
As for B4, the Av. IC50(nM) huIL-12; PHA blast IFN-gamma induction assay in test [1] was determined as 0.15 nM. Also, in test [5], the dissociation constant (Kd) was found to be 0.024 nM, the koff turned out to be 7.6e-06 s⁻¹ and the kon was 320000 M⁻¹ s⁻¹.

B5: 1A6.12 (antibody, IgG1, V domains shown)
VH: EVTLRESGPGLVKPTQTLTLTCTLYGFSLSTSGMGVSWIRQPPGKGLEWLAHIWWDGDNYYNPSLKSQLTISKDTSKNQVVLKLTSVDPVDTATYYCARRTRVNYAMDYWGQGTLVTVSS
VL: DIQMTQSPSSLSASVGDRVTITCKASQSVSNDVAWFQQKPGKAPKLLIYYASNRYTGVPDRFSGSGYGTDFTFTISSLQPEDIATYYCQQDYNSPWTFGGGTKVEIKR
For B5, the Av. IC50(nM) huIL-12; PHA blast IFN-gamma induction assay in test [1] came to 0.088 nM. In test [5], the Kd was 0.4 nM, the koff turned out to be 0.0003 s⁻¹ and the on-rate constant (kon) amounted to 740000 M⁻¹ s⁻¹.

B6: 1D4 (antibody, V domains shown)
VH: QVTLKESGPGILQPSQTLSLTCSFSGFSLRKSVMGVSWIRQPSGKGLEWLAHIYWDDDKYYNPSLKSRLTISKDPSRNQVFLKITSVDTADAATYYCTRRGIRSAMDYWGQGTSVTVSS
VL: SVVMTQTPKFLLVSAGDRVTITCKASQSVSNDVAWYQQKPGQSPKLLIYYASNRYTGVPDRFTGSGYGTDFTFIISTVRAEDLAVYFCQQDYNSPWTFGGGTKLEIKR
For B6, the Average IC50 (nM) Human IL-12; PHA blast IFN-gamma induction assay in test [1] came to 0.031 nM. In test [2], the dissociation constant (Kd) was 0.12 nM, the off-rate constant (koff) is 2.9e-05 s⁻¹ and the on-rate (kon) was 250000 M⁻¹ s⁻¹.

B7: 1D8 (antibody, V domains shown)
VH: QVQLQQSGAELMKPGASVKISCKATGYTFSSYWIEWVKQRPGHGLEWIGDILPGSGSTNYNEKFKDKATFTADTSFNTAYMQLSSLTSEDSAVYYCATRRFRGLDYWGQGTTLTVSS
VL: SIVMTQTPKFLLVSAGDRVTITCKASQSVSNDVAWYQQKSGQSPKLLIYYASNRYTGVPDRFTGSGYGTDFTFTISTVQPEDLAVYFCQQDYTSPFTFGSGTKLEIKR
In the case of B7, the Average IC50 (nM) Human IL-12; PHA blast IFN-gamma induction assay in test [1] was found to be 0.31 nM. Further, in test [2], the dissociation constant Kd is 0.044 nM, the off-rate constant (koff) was 2.3e-05 s⁻¹ and the kon came to 510000 M⁻¹ s⁻¹.

B8: 1A6 (antibody, V domains shown)
VH: QVTLKESGPGILKPSQTLSLTCSFSGFSLSTSGMGVSWIRQPSGKGLEWLAHIWWDGDNYYNPSLKSQLTISKDTSRNQVFLRIATVDTADTATYYCARRTRVNYAMDYWGQGTSVTVSS
VL: SVVMTQTPKFLLVSAGDRVTITCKASQSVSNDVAWFQQKPGQSPKLLIYYASNRYTGVPDRFTGSGYGTDFTFTISTVQAEDLAVYFCQQDYNSPWTFGGGTKLEIKR
For the molecule B8, the Average IC50 (nM) Human IL-12; PHA blast IFN-gamma induction assay in test [1] was 0.052 nM. Also, in test [2], the Kd is 0.23 nM, the koff was 3.5e-05 s⁻¹ and the on-rate (kon) turned out to be 150000 M⁻¹ s⁻¹.

B9: 1D4.4 (antibody, human IgG1, V domains shown)
VH: EVTLRESGPALVKPTQTLTLTCTFSGFSLSKSVMGVSWIRQPPGKALEWLAHIYWDDDKYYNPSLKSRLTISKDTSKNQVVLTMTNMDPVDTATYYCARRGIRSAMDYWGQGTTVTVSS
VL: SVVMTQTPKFLLVSAGDRVTITCKASQSVSNDVAWYQQKPGQSPKLLIYYASNRYTGVPDRFTGSGYGTDFTFIISTVRAEDLAVYFCQQDYNSPWTFGGGTKLEIKR
Take B9: the Av. IC50(nM) huIL-12; PHA blast IFN-gamma induction assay in test [1] was 0.64 nM. In test [3], the dissociation constant (Kd) was determined as 0.074 nM, the dissociation rate constant (koff) was 2.1e-05 s⁻¹ and the kon was 280000 M⁻¹ s⁻¹.

B10: 5E8 (antibody, V domains shown)
VH: QIQLVQSGPELKKPGETVKISCKASGYSFTDYSMHWVKQAPGKGLKWMDWINTETGEPTYADDFKGRFAFSLETSASTAYLQINNLKNEDTATYFCSRRRYRAFDYWGQGTTLTVSS
VL: SIVMTQSPKFLLVSAGDRVTITCKASQSVSNDVAWYQQKLGQSPKLLIYYASNRYTGVPDRFTGSGYGTDFTFTINTVQAEDLAVYFCQQDYTSPYTFGGGTKLEIQR
For B10, the Average IC50 (nM) Human IL-12; PHA blast IFN-gamma induction assay in test [1] was found to be 12 nM. In test [2], the Kd was found to be 4 nM, the off-rate constant (koff) turned out to be 0.0023 s⁻¹ and the kon is 570000 M⁻¹ s⁻¹.

B11: 1H6 (antibody, V domains shown)
VH: EVKLVESGGGLVQPGGSRKLSCAASGFTFSDYGMVWVRQAPGKGLEWVAYISSGSSTIHYADTMKGRFTISRDNPKNTLFLQMSSLRSEDTAMYYCARRHYYAMDYWGQGTSVTVSS
VL: SFVMTQTPKFLLVSAGDRVTITCKASQSVSNDVAWYQQKPGQSPKLLIYYASNRYTGVPDRFTGTGYGTDFTFTISTVQAEDLAVYFCQQDYTSPFTFGSGTKLEIKR
On to B11, for which the Average IC50 (nM) Human IL-12; PHA blast IFN-gamma induction assay in test [1] was determined as 0.69 nM. For the same molecule, in test [2], the Kd amounted to 0.25 nM, the koff is 9.9e-05 s⁻¹ and the on-rate constant (kon) is 430000 M⁻¹ s⁻¹.

B12: 4B4 (antibody, V domains shown)
VH: QVTLKESGPGILKPSQTLSLTCSLSGFSLSTSGMGVSWIRQPSGKGLEWLAHIWWDGDSYSNPSLRSRLTISRDTSRNQVFLRIATVDTADTATYYCARRTRVNYAMDYWGQGTSVTVSS
VL: SVVMTQTPKFLLVSAGDRVTMTCKASQSVSNDVAWFQQKPGQSPKLLIYYASNRYTGVPDRFTGSGYGTDFTFTISTVQAEDLAVYFCQQDYNSPWTFGGGTKLEIKR
B12: the Average IC50 (nM) Human IL-12; PHA blast IFN-gamma induction assay in test [1] is 0.039 nM. In test [2], the dissociation constant (Kd) amounted to 0.1 nM, the dissociation rate constant (koff) is 1.4e-05 s⁻¹ and the kon turned out to be 130000 M⁻¹ s⁻¹.

B13: 1D4.5 (antibody, human IgG1, V domains shown)
VH: QVTLKESGPGILQPSQTLSLTCSFSGFSLRKSVMGVSWIRQPSGKGLEWLAHIYWDDDKYYNPSLKSRLTISKDPSRNQVFLKITSVDTADAATYYCTRRGIRSAMDYWGQGTSVTVSS
VL: DIVMTQSPDSLAVSLGERATINCKASQSVSNDVAWYQQKPGQPPKLLIYYASNRYTGVPDRFSGSGSGTDFTLTISSLQAEDVAVYYCQQDYNSPWTFGGGTKVEIKR
B13: the Av. IC50(nM) huIL-12; PHA blast IFN-gamma induction assay in test [1] came out at 0.053 nM. Moreover, in test [3], the Kd stood at 0.11 nM, the koff was 3.1e-05 s⁻¹ and the kon worked out at 300000 M⁻¹ s⁻¹.

B14: 1A6.3 (antibody, human IgG1, V domains shown)
VH: EVTLKESGPVLVKPTETLTLTCTVSGFSLSTSGMGVSWIRQPPGKALEWLAHIWWDGDNYYNPSLKSRLTISKDTSKSQVVLTMTNMDPVDTATYYCARRTRVNYAMDYWGQGTTVTVSS
VL: SVVMTQTPKFLLVSAGDRVTITCKASQSVSNDVAWFQQKPGQSPKLLIYYASNRYTGVPDRFTGSGYGTDFTFTISTVQAEDLAVYFCQQDYNSPWTFGGGTKLEIKR
On to B14, for which the Av. IC50(nM) huIL-12; PHA blast IFN-gamma induction assay in test [1] was 0.068 nM. Further, in test [3], the dissociation constant Kd turned out to be 0.14 nM, the koff turned out to be 2.6e-05 s⁻¹ and the kon was found to be 190000 M⁻¹ s⁻¹.

B15: 3G7 (antibody, V domains shown)
VH: QVQLQQSGAELMKPGASVKISCKATGYTFNDYWIEWVKQRPGHGLEWIGGFSHGSGSTNYNEKFKGKATFTADSSSNTAYMQLSSLTSEDSAVYYCARRRFRGMDYWGQGTSVTVSS
VL: SIVMTQTPKFLLVSAGDRVTITCKASQSVSNDVAWYQQKPGQSPKLLIYYASNRYTGVPDRFTGSGYGTDFTFTITTVQAEDLAVYFCQQDYSSPWSFGGGTKLEIKR
Take B15: the Average IC50 (nM) Human IL-12; PHA blast IFN-gamma induction assay in test [1] was 0.15 nM. Also, in test [2], the Kd is 0.047 nM, the koff stood at 3.8e-05 s⁻¹ and the on-rate (kon) is 820000 M⁻¹ s⁻¹.

B16: 8E1.3 (antibody, human IgG1, kappa, L234A L235A, V domains shown)
VH: EVKLVESGGGLVQPGGSLRLSCAASGFTFSDYGMVWVRQAPGKGLEWVASISSGSSNIYYADTVKGRFTISRDDSKNTLYLQMNSLKTEDTAVYYCARNPYWGQGTTVTVSS
VL: DIVMTQSPSSLSASVGDRVTITCKASQNVGTNVAWYQQKPEKAPKSLIYSASHRYSGVPSRFSGSGSGTDFTLTISSLQPEDFATYYCQQYNSYPLTFGGGTKVEIKR
Turning to B16, the Av. IC50(nM) huIL-12; PHA blast IFN-gamma induction assay in test [1] worked out at 10 nM. Also, in test [4], the Kd is 0.76 nM, the koff was found to be 0.001 s⁻¹ and the kon is 1.3e+06 M⁻¹ s⁻¹.
